Where no end group is shown, it is not given here.
T1: phosphorylase a (Oryctolagus cuniculus, UniProt P00489)
T1 sequence (P00489 2-843 limits assumed): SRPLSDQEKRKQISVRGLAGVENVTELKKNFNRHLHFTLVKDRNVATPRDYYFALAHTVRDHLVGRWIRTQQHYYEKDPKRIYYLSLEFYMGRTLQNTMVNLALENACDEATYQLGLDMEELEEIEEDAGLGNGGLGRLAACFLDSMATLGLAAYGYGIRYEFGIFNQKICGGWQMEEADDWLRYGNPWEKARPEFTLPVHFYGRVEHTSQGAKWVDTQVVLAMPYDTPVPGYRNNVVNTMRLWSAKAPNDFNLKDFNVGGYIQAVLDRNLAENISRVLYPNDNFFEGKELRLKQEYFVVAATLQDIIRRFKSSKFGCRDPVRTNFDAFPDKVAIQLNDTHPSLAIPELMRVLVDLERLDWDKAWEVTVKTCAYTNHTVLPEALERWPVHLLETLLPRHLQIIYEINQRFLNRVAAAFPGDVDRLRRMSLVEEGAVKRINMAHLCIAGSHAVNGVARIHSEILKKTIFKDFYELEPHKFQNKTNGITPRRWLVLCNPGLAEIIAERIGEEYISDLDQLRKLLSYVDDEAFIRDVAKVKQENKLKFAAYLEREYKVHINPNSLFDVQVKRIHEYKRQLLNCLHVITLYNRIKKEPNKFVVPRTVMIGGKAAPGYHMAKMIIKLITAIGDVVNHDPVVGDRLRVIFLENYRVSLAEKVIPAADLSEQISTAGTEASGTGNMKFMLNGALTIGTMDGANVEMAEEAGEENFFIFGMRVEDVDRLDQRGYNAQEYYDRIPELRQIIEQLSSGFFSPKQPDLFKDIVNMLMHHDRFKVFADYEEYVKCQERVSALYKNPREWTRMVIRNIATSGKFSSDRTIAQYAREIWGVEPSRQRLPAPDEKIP

B1: GST-GL(1-257): GST fused to GL residues 1-257 (protein)
chain: MAVDIEYSYSSMAPSLRRERFTFKISPKLNKPLRPCIQLGSKDEAGRMVAPTVQEKKVKKRVSFADNQGLALTMVKVFSEFDDPLDIPFNITELLDNIVSLTTAESESFVLDFPQPSADYLDFRNRLQTNHVCLENCVLKEKAIAGTVKVQNLAFEKVVKIRMTFDTWKSFTDFPCQYVKDTYAGSDRDTFSFDISLPEKIQSYERMEFAVCYECNGQSYWDSNKGKNYRITRAELRSTQGMTEPYNGPDFGISFDQ
modifications: left off: a dimerising Fc or GST
B2: GST-GL(216-284): GST fused to GL residues 216-284 (protein)
chain: {GST}-NGQSYWDSNKGKNYRITRAELRSTQGMTEPYNGPDFGISFDQFGSPRCSFGLFPEWPSYLGYEKLGPYY
B3: GST-GL: glutathione S-transferase fused to the full-length GL coding region (residues 1-284) of rat liver GL (protein)
chain: MAVDIEYSYSSMAPSLRRERFTFKISPKLNKPLRPCIQLGSKDEAGRMVAPTVQEKKVKKRVSFADNQGLALTMVKVFSEFDDPLDIPFNITELLDNIVSLTTAESESFVLDFPQPSADYLDFRNRLQTNHVCLENCVLKEKAIAGTVKVQNLAFEKVVKIRMTFDTWKSFTDFPCQYVKDTYAGSDRDTFSFDISLPEKIQSYERMEFAVCYECNGQSYWDSNKGKNYRITRAELRSTQGMTEPYNGPDFGISFDQFGSPRCSFGLFPEWPSYLGYEKLGPYY
modifications: left off: a dimerising Fc or GST
notes: glutathione S-transferase fused to the full-length GL coding region (residues 1-284) of rat liver GL
B4: GST-GL(1-271): GST fused to GL residues 1-271 (protein)
chain: MAVDIEYSYSSMAPSLRRERFTFKISPKLNKPLRPCIQLGSKDEAGRMVAPTVQEKKVKKRVSFADNQGLALTMVKVFSEFDDPLDIPFNITELLDNIVSLTTAESESFVLDFPQPSADYLDFRNRLQTNHVCLENCVLKEKAIAGTVKVQNLAFEKVVKIRMTFDTWKSFTDFPCQYVKDTYAGSDRDTFSFDISLPEKIQSYERMEFAVCYECNGQSYWDSNKGKNYRITRAELRSTQGMTEPYNGPDFGISFDQFGSPRCSFGLFPEW
modifications: left off: a dimerising Fc or GST
B5: GST-GL(1-216): GST fused to GL residues 1-216 (protein)
chain: MAVDIEYSYSSMAPSLRRERFTFKISPKLNKPLRPCIQLGSKDEAGRMVAPTVQEKKVKKRVSFADNQGLALTMVKVFSEFDDPLDIPFNITELLDNIVSLTTAESESFVLDFPQPSADYLDFRNRLQTNHVCLENCVLKEKAIAGTVKVQNLAFEKVVKIRMTFDTWKSFTDFPCQYVKDTYAGSDRDTFSFDISLPEKIQSYERMEFAVCYECN
modifications: left off: a dimerising Fc or GST
B6: GST-GL(94-284): GST fused to GL residues 94-284 (protein)
chain: LLDNIVSLTTAESESFVLDFPQPSADYLDFRNRLQTNHVCLENCVLKEKAIAGTVKVQNLAFEKVVKIRMTFDTWKSFTDFPCQYVKDTYAGSDRDTFSFDISLPEKIQSYERMEFAVCYECNGQSYWDSNKGKNYRITRAELRSTQGMTEPYNGPDFGISFDQFGSPRCSFGLFPEWPSYLGYEKLGPYY
modifications: left off: a dimerising Fc or GST
B7: GST-GL(59-284): GST fused to GL residues 59-284 (protein)
chain: KKRVSFADNQGLALTMVKVFSEFDDPLDIPFNITELLDNIVSLTTAESESFVLDFPQPSADYLDFRNRLQTNHVCLENCVLKEKAIAGTVKVQNLAFEKVVKIRMTFDTWKSFTDFPCQYVKDTYAGSDRDTFSFDISLPEKIQSYERMEFAVCYECNGQSYWDSNKGKNYRITRAELRSTQGMTEPYNGPDFGISFDQFGSPRCSFGLFPEWPSYLGYEKLGPYY
modifications: left off: a dimerising Fc or GST
B8: GST-GL(170-284): GST fused to GL residues 170-284 (protein)
chain: SFTDFPCQYVKDTYAGSDRDTFSFDISLPEKIQSYERMEFAVCYECNGQSYWDSNKGKNYRITRAELRSTQGMTEPYNGPDFGISFDQFGSPRCSFGLFPEWPSYLGYEKLGPYY
modifications: left off: a dimerising Fc or GST
B9: GST-GL(1-94): GST fused to GL residues 1-94 (protein)
chain: MAVDIEYSYSSMAPSLRRERFTFKISPKLNKPLRPCIQLGSKDEAGRMVAPTVQEKKVKKRVSFADNQGLALTMVKVFSEFDDPLDIPFNITEL
modifications: left off: a dimerising Fc or GST
B10: GST-GL(134-284): GST fused to GL residues 134-284 (protein)
chain: LENCVLKEKAIAGTVKVQNLAFEKVVKIRMTFDTWKSFTDFPCQYVKDTYAGSDRDTFSFDISLPEKIQSYERMEFAVCYECNGQSYWDSNKGKNYRITRAELRSTQGMTEPYNGPDFGISFDQFGSPRCSFGLFPEWPSYLGYEKLGPYY
modifications: left off: a dimerising Fc or GST

tested on: PP1GL complex; test: not given; settings: previous experiments; cited from earlier work

Q: For “GM 63-93: peptide comprising residues 63-93 of the skeletal muscle glycogen targeting subunit (RVSFADSFGFNLVSVKEFDCWELPSASTTFD; UniProt Q16821 63-93, looked up, fragment)”, which “disruption of the PP1GL complex” value is on record?
A: Its value is “did not abolish binding of GL to PP1”.

Q: Which “disruption of the PP1GL complex” value does the source give for “M110 1-38: peptide comprising the amino terminal 38 residues of the M110 subunit of the myosin targeting subunit of PP1 (MKMADAKQKRNEQLKRWIGSETDLEPPVVKRQKTKVKF; UniProt O14974 1-38, looked up, fragment)” here?
A: The value was “could disrupt the PP1GL complex”.

molecular target: T1, phosphorylase a; test: Blot overlay binding of 32P-labelled phosphorylase a to GST-GL fusion proteins; settings: 100 nM 32P-phosphorylase a, fusion proteins on nitrocellulose membranes
Description: (§1) GST-GL fusion proteins were separated on SDS-PAGE and transferred to nitrocellulose membranes. They were probed with digoxigenin-PP1γ. Alternatively they were examined for binding of ^32P-labelled phosphorylase a. Non-specific binding to the membranes was blocked by incubation in 5% (w/v) marvel dried milk powder, 25 mM Tris/HCI pH 7.5, 500 mM NaCl for 16 hours. The samples were then probed for 3 h with ^32P-labelled phosphorylase a (100 nM) in 25 mM Tris/HCl pH 7.5, 250 mM NaCl, 1 mg/ml bovine serum albumin. The membranes were subsequently washed (3×30 min) with 25 mM Tris/HCl pH 7.5 before autoradiography.

Q: With “GST-GL(257-284): GST fused to GL residues 257-284 ({GST}-QFGSPRCSFGLFPEWPSYLGYEKLGPYY)” as the molecule, how does the “binding of 32P-labelled phosphorylase a” value read?
A: The value was “found to bind”.

Q: Which “binding of 32P-labelled phosphorylase a” value does the source give for “GST-GL(269-284): GST fused to GL residues 269-284, the C-terminal 16 amino acids ({GST}-PEWPSYLGYEKLGPYY)” here?
A: Its value is “found to bind”.

Q: With B1 as the molecule, how does the “binding of 32P-labelled phosphorylase a” value read?
A: The value was “not”.

Q: With B2 as the molecule, how does the “binding of 32P-labelled phosphorylase a” value read?
A: Its value is “found to bind”.

Q: With B3 as the molecule, how does the “binding of 32P-labelled phosphorylase a” value read?
A: Its value is “found to bind”.

Q: Which “binding of 32P-labelled phosphorylase a” value does the source give for B4 here?
A: Its value is “not”.

Q: For B5, which “binding of 32P-labelled phosphorylase a” value is on record?
A: The value was “not”.

tested on: not listed separately; test: Co-sedimentation of GST-GL fusion proteins with hepatic glycogen; format: binding, rabbit; settings: 100 000×g for 1 h, absence of glycogen
Description: Protein free glycogen was prepared by the following protocol. Glycogen-protein particles were isolated from the livers of New Zealand White rabbits. Protein was then stripped from the glycogen by boiling for 5 min in 1% (w/v) sodium dodecyl sulphate (SDS). The suspension was cooled to room temperature and centrifuged for 60 min at 100,000×g. The 100,000×g pellet was then resuspended in water, and the centrifugation and resuspension procedure repeated a further two times in order to completely remove residual SDS and protein. Any contaminating nucleotides were removed by incubating the glycogen for 15 min with mixed bed resin, AG 501-X8(D). The resin was removed by filtration and the glycogen concentration determined by the phenol/sulphuric acid method.
Protein free glycogen (10 mg/ml) in 50 mM Tris/HCl pH 7.5, 150 mM NaCl, 0.1% (v/v) 2-mercaptoethanol, 0.02% (w/v) Brij-35, 0.1 mg/ml bovine serum albumin was mixed with GST-GL fusion proteins (50 nM). […] The supernatant and pellet fractions were denatured in SDS, subjected to SDS-polyacrylamide gel electrophoresis and transferred to nitrocellulose. […]

Q: With B3 as the molecule, how does the “aggregation (pelleted in the absence of glycogen)” value read?
A: The value was “strong tendency to aggregate”.

same assay, conditions: protein free glycogen 10 mg/ml, fusion protein 50 nM, 100,000×g, immunoblot of supernatant and pellet

Q: Which “co-sedimentation with glycogen (binding to glycogen)” value does the source give for B6 here?
A: The value was “detected exclusively in the 100,000×g pellet”.

tested on: PP1; test: not given; settings: recent studies; cited from earlier work

Q: For “GM 63-75: peptide of amino acids 63 to 75 of GM (RVSFADSFGFNLV; UniProt Q16821 63-75, looked up, fragment)”, which “binding to PP1” value is on record?
A: The value was “shown to bind PP1”.

molecular target: PP1γ (Homo sapiens, UniProt P36873); test: Blot overlay binding of digoxigenin-labelled PP1γ to GST-GL fusion proteins; settings: fusion proteins on nitrocellulose membranes
Description: as §1

PP1γ, sequence (P36873 whole entry, the tested form may be a part): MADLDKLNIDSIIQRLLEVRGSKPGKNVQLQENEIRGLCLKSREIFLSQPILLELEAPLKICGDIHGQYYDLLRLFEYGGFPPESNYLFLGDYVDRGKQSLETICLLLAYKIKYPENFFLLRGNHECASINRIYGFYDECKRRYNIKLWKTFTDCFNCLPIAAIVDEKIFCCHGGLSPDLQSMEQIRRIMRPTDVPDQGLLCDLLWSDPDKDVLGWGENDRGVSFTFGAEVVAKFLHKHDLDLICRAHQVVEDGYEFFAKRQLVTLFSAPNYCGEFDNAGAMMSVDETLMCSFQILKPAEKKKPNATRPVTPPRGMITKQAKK

Q: Which “binding of digoxigenin-labelled PP1γ” value does the source give for “GST-GL(1-59): GST fused to GL residues 1-59 ({GST}-MAVDIEYSYSSMAPSLRRERFTFKISPKLNKPLRPCIQLGSKDEAGRMVAPTVQEKKVK)” here?
A: The value was “not”.

Q: With B7 as the molecule, how does the “binding of digoxigenin-labelled PP1γ” value read?
A: Its value is “binds”.

Q: Which “binding of digoxigenin-labelled PP1γ” value does the source give for B6 here?
A: Its value is “not”.

Q: For B3, which “binding of digoxigenin-labelled PP1γ” value is on record?
A: Its value is “binds”.

Q: For B8, which “binding of digoxigenin-labelled PP1γ” value is on record?
A: The value was “not”.

Q: For B9, which “binding of digoxigenin-labelled PP1γ” value is on record?
A: Its value is “binds”.

Q: Which “binding of digoxigenin-labelled PP1γ” value does the source give for B10 here?
A: Its value is “not”.
